Results published in patent US20020150885.

Columns and labels:
[1] = target: T1, N-Ac-LEVD-N′-ethoxycarbonyl R110 SEQ ID NO:9
T1 chain: LEVD

[2] = target: T2, N-(Z-DEVD)-N′-acetyl-Rhodamine 110 SEQ ID NO:5
T2 chain: DEVD

[3] = target: T3, N-(Z-VD)-N′-acetyl-Rhodamine 110
T3 chain: VD

[4] = target: T4, N-Ac-DEVD-N′-(ethylthio)carbonyl-R110 SEQ ID NO:5
T4 chain: DEVD

[5] = target: T5, N-Ac-DEVD-N′-ethoxycarbonyl-R110 SEQ ID NO:5
T5 chain: DEVD

[6] = target: T6, N-Ac-DEVD-N′-hexyloxycarbonyl-R110 SEQ ID NO:5
T6 chain: DEVD

[7] = target: T7, N-Ac-DEVD-N′-octyloxycarbonyl-R110 SEQ ID NO:5
T7 chain: DEVD

[8] = target: T8, N-Z-DEVD-N′-ethoxycarbonyl-R110 SEQ ID NO:5
T8 chain: DEVD

[9] = target: T9, N-Z-EVD-N′-ethoxycarbonyl-R110
T9 chain: EVD

[10] = target: T10, N-Z-VD-N′-ethoxycarbonyl-R110
T10 chain: VD

(Z-VAD)2-Rhodamine 110 = target: T11, (Z-VAD)2-Rhodamine 110
T11 chain: VAD

[11] = target: T12, (Z-YVAD)2-Rhodamine 110 SEQ ID NO:2
T12 chain: YVAD

[12] = target: T13, N-(Z-VAD)-N′-acetyl-Rhodamine 110
T13 chain: VAD

[13] = target: T14, N-(Z-YVAD)-N′-acetyl-Rhodamine 110 SEQ ID NO:2
T14 chain: YVAD

B1: recombinant human caspase-8 (protein)
chain: SESQTLDKVYQMKSKPRGYCLIINNHNFAKAREKVPKLHSIRDRNGTHLDAGALTTTFEELHFEIKPHDDCTVEQIYEILKIYQLMDHSNMDCFICCILSHGDKGIIYGTDGQEAPIYELTSQFTGLKCPSLAGKPKVFFIQACQGDNYQKGIPVETDSEEQPYLEMDLSSPQTRYIPDEADFLLGMATVNNCVSYRNPAEGTWYIQSLCQSLRERCPRGDDILTILTEVNYEVSNKDDKKNMGKQMPQPTFTLRKKLVFPSD
[1]
  signal to background ratio (fluorescence of cleaved substrate): signal to background ratios of about 13 for caspase-6 to about 26 for caspase-8

B2: recombinant human caspase-6 (protein)
chain: AFYKREMFDPAEKYKMDHRRRGIALIFNHERFFWHLTLPERRGTCADRDNLTRRFSDLGFEVKCFNDLKAEELLLKIHEVSTVSHADADCFVCVFLSHGEGNHIYAYDAKIEIQTLTGLFKGDKCHSLVGKPKIFIIQACRGNQHDVPVIPLDVVDNQTEKLDTNITEVDAASVYTLPAGADFLMCYSVAEGYYSHRETVNGSWYIQDLCEMLGKYGSSLEFTELLTLVNRKVSQRRVDFCKDPSAIGKKQVPCFASMLTKKLHFFPKSN
[1]
  signal to background ratio (fluorescence of cleaved substrate): signal to background ratios of about 13 for caspase-6 to about 26 for caspase-8

B3: recombinant human caspase-7 (protein)
chain: AKPDRSSFVPSLFSKKKKNVTMRSIKTTRDRVPTYQYNMNFEKLGKCIIINNKNFDKVTGMGVRNGTDKDAEALFKCFRSLGFDVIVYNDCSCAKMQDLLKKASEEDHTNAACFACILLSHGEENVIYGKDGVTPIKDLTAHFRGDRCKTLLEKPKLFFIQACRGTELDDGIQADSGPINDTDANPRYKIPVEADFLFAYSTVPGYYSWRSPGRGSWFVQALCSILEEHGKDLEIMQILTRVNDRVARHFESQSDDPHFHEKKQIPCVVSMLTKELYFSQ
[1]
  fluorescent signal of cleaved substrate: Caspase-7 gave virtually no signal

B4: Recombinant CPP32 protein (protein)
chain: SGISLDNSYKMDYPEMGLCIIINNKNFHKSTGMTSRSGTDVDAANLRETFRNLKYEVRNKNDLTREEIVELMRDVSKEDHSKRSSFVCVLLSHGEEGIIFGTNGPVDLKKITNFFRGDRCRSLTGKPKLFIIQACRGTELDCGIETDSGVDDDMACHKIPVEADFLYAYSTAPGYYSWRNSKDGSWFIQSLCAMLKQYADKLEFMHILTRVNRKVATEFESFSFDATFHAKKQIPCIVSMLTKELYFYH
[2]
  Km: 154 µM
  Vmax: 160 nmol/min
[3]
  Km: 60 µM

B5: recombinant human caspase-3 (protein)
chain: B4 chain
[4]
  Cleavage by Caspase-3: Good
[5]
  Cleavage by Caspase-3: Good
[6]
  Cleavage by Caspase-3: Good
[7]
  Cleavage by Caspase-3: Good
[1]
  signal above the enzyme blank value (fluorescence of cleaved substrate): a signal that was about 5-fold above the enzyme blank value
[8]
  Cleavage by Caspase-3: Good
[9]
  Cleavage by Caspase-3: Fair
[10]
  Cleavage by Caspase-3: Poor
  amount of enzyme needed for cleavage, against tri- and tetrapeptide substrates: a 50-fold greater amount of enzyme than needed for tri- and tetrapeptide substrates

B6: Recombinant ICE protein (protein)
chain: NPAMPTSSGSEGNVKLCSLEEAQRIWKQKSAEIYPIMDKSSRTRLALIICNEEFDSIPRRTGAEVDITGMTMLLQNLGYSVDVKKNLTASDMTTELEAFAHRPEHKTSDSTFLVFMSHGIREGICGKKHSEQVPDILQLNAIFNMLNTKNCPSLKDKPKVIIIQACRGDSPGVVWFKDSVGVSGNLSLPTTEEFEDDAIKKAHIEKDFIAFCSSTPDNVSWRHPTMGSVFIGRLIEHMQEYACSCDVEEIFRKVRFSFEQPDGRAQMPTTERVTLTRCFYLFPGH
(Z-VAD)2-Rhodamine 110
  Km: 21 µM
  Vmax: 9 nmol/min
[11]
  Km: 6 µM
  Vmax: 14 nmol/min
[2]
  Km: 12 µM
  Vmax: 9 nmol/min
[12]
  Km: 70 µM
  Vmax: 4 nmol/min
[13]
  Km: 32 µM
  Vmax: 96 nmol/min
